Where two headings read alike, the source gives them in different places. Ends that are not written are not given here.
Key:
[1] = target: T1, epitope tag peptide SRLEEELRRRLTE (SEQ ID NO: 2), biotinylated (also: biotinylated (site and linker not given here)); assay: BLI (Octet), biotinylated peptide on SAX2.0 biosensors, 1:1 global fit
T1 construct: Rationally designed peptide; also called ALFA-tag
T1 peptide: SRLEEELRRRLTE
Experimental: (§1) To determine the affinity of humanized NbALFA variants to the epitope tag of SEQ ID NO: 2, an Octet RED96 or an Octet HTX from ForteBio was utilized. The measurement principle is based on biolayer interferometry (BLI). SAX2.0 biosensors were soaked for 10 min in kinetic buffer (KB), supplied by the manufacturer of the instrument. At first, a 60 or 120 sec baseline in KB was measured, followed by a loading step of 240 sec with 83 ng/ml of biotinylated peptide of SEQ ID NO: 2. After loading, free streptavidin entities on the biosensor were quenched during a 120 sec incubation step in a 100 μg/ml biocytin solution. Subsequently, a 60 to 600 sec baseline in KB was measured followed by association of the VHH. The VHH was applied with a maximal concentration of 10 nM and was 1:1 serial diluted in KB. As a reference, only KB was measured. Association was performed for 900 sec, followed by a dissociation time of 1500 sec in KB. The signal of the reference well was subtracted from the signal of all other biosensors and the signals of these processed data were aligned to the average of the second baseline. For inter-step correction, the data were aligned to the dissociation step and Savitzky-Golay filtering was applied to all curves. Association and dissociations were globally fitted using a 1:1 Langmuir binding model.

[2] = target: T1, epitope tag peptide SRLEEELRRRLTE (SEQ …); assay: as above
Experimental: as §1

[3] = target: T1, epitope tag peptide SRLEEELRRRLTE (SEQ …); assay: biolayer interferometry (Octet); biotinylated peptide of SEQ ID NO: 2 loaded on SAX2.0 biosensors; VHH in solution, 1:1 serial dilution (Method 1)
Excerpt: FIG. 1: Affinity of humanized NbALFA variants generated by CDR grafting. A, affinity measurements of the original alpaca-derived NbALFA (wtNbALFA) for the peptide of SEQ ID NO: 2. B, affinity measurements of variant 3 for the peptide of SEQ ID NO: 2. C, affinity measurements of variant 4 for the peptide of SEQ ID NO: 2. D, affinity measurements of variant 5 for the peptide of SEQ ID NO: 2. E, affinity measurements of variant 6 for the peptide of SEQ ID NO: 2. F, affinity measurements of variant 7 for the peptide of SEQ ID NO: 2. Affinity was determined using biolayer interferometry as described in Method 1 of the Examples.
as §1

Binder	Kd [1] [nM]	koff [1] [s⁻¹]	kon [1] [M⁻¹ s⁻¹]	Kd [2] [nM]	koff [2] [s⁻¹]	kon [2] [M⁻¹ s⁻¹]	binding result [3]
Variant 11 of humanized NbALFA (VHH) VHH: EVQLVESGGGLVQPGGSLRLSCAASGVTISALNAMAMGWYRQAPGKRREMVAAVSERGNAMYRESVKGRFTISRDNAKRMVYLQMNSLRAEDTAVYYCHVLEDRVDSFHDYWGQGTQVTVSS	0.0595	3.7e-05	622000				
Variant 12 of humanized NbALFA (VHH) VHH: EVQLVESGGGLVQPGGSLRLSCAASGVTISALNAMAMGWYRQAPGKRREMVAAVSERGNTMYRESVKGRFTISRDNAKRMVYLQMNSLRAEDTAVYYCHVLEDRVDSFHDYWGQGTQVTVSS	0.248	0.000151	609000				
Variant 15 of humanized NbALFA (VHH) VHH: EVQLVESGGGLVQPGGSLRLSCAASGVTISALNAMAMGWYRQAPGKRREMVAAVSERGNTYYRDSVKGRFTISRDNSKNTLYLQMNSLRAEDTAVYYCHVLEDRVDSFHDYWGQGTQVTVSS		0.000302	1.59e+06				
Variant 10 of humanized NbALFA (VHH) VHH: EVQLVESGGGLVQPGGSLRLSCAASGVTISALNAMAMGWYRQAPGKRREMVAAVSERGNTMYRESVQGRFTISRDNAKRMVYLQMNSLRAEDTAVYYCHVLEDRVDSFHDYWGQGTQVTVSS	0.306	0.000147	480000				
Variant 9 of humanized NbALFA (VHH, Further engineered humanized variant; Any tag on the tested construct is not described) VHH: EVQLVESGGGLVQPGGSLRLSCAASGVTISALNAMAMGWYRQAPGKRREMVAAVSERGNAMYRESVQGRFTISRDNAKRMVYLQMNSLRAEDTAVYYCHVLEDRVDSFHDYWGQGTQVTVSS	0.182	3.69e-05	203000				
Variant 14 of humanized NbALFA (VHH) VHH: EVQLVESGGGLVQPGGSLRLSCAASGVTISALNAMAMGWYRQAPGKRREMVAAVSERGNAMYRESVKGRFTISRDNSKNTLYLQMNSLRAEDTAVYYCHVLEDRVDSFHDYWGQGTQVTVSS	0.218	0.00013	596000				
Variant 13 of humanized NbALFA (VHH) VHH: EVQLVESGGGLVQPGGSLRLSCAASGVTISALNAMAMGWYRQAPGKRREMVAAVSERGNTYYRDSVKGRFTISRDNAKRMVYLQMNSLRAEDTAVYYCHVLEDRVDSFHDYWGQGTQVTVSS	0.217	0.000167	767000				
Variant 7 of humanized NbALFA (VHH, CDR-grafted variant, produced in E. coli and purified by IMAC; The tag is not described) VHH: EVQLVESGGGLVQPGGSLRLSCAASGVTISALNAMAMGWFRQAPGKGRELVAAVSERGNAMYRESVQGRFTISRDNAKRMVYLQMNSLRAEDTAVYYCHVLEDRVDSFHDYWGQGTQVTVSS				1.86	0.000276	149000	
Variant 8 of humanized NbALFA (VHH, Further engineered humanized variant; Any tag on the tested construct is not described) VHH: EVQLVESGGGLVQPGGSLRLSCAASGVTISALNAMAMGWFRQAPGKRREMVAAVSERGNAMYRESVQGRFTISRDNAKRMVYLQMNSLRAEDTAVYYCHVLEDRVDSFHDYWGQGTQVTVSS	0.263	0.000263	1e+06				
wtNbALFA (original alpaca-derived NbALFA single-domain antibody) (VHH, VHH; Any purification tag on the construct used in the BLI and SpA assays is not described; also called wild type NbALFA) VHH: EVQLQESGGGLVQPGGSLRLSCTASGVTISALNAMAMGWYRQAPGERRVMVAAVSERGNAMYRESVQGRFTVTRDFTNKMVSLQMDNLKPEDTAVYYCHVLEDRVDSFHDYWGQGTQVTVSS	0.16	6.37e-05	399000	0.16	6.37e-05	399000	
Variant 5 of humanized NbALFA (VHH, CDR-grafted variant, produced in E. coli and purified by IMAC; The tag is not described) VHH: EVQLQASGGGFVQPGGSLRLSCAASGVTISALNAMAMGWFRQAPGKEREFVSAISERGNAYYRDSVKGRFTISRDNSKNTVYLQMNSLRAEDTATYYCAALEDRVDSFHDYWGQGTQVTVSS							no binding
Variant 3 of humanized NbALFA (VHH, CDR-grafted variant, produced in E. coli and purified by IMAC; The tag is not described) VHH: EVQLLESGGGLVQPGGSLRLSCAASGVTISALNAMAMGWFRQAPGKGLEFVAAVSERGNAMYRESVQGRFTISRDNSKNTLYLQMNSLRAEDTAVYYCAALEDRVDSFHDYWGQGTLVTVSS							no binding
Variant 4 of humanized NbALFA (VHH, CDR-grafted variant, produced in E. coli and purified by IMAC; The tag is not described) VHH: EVQLLESGGGLVQPGGSLRLSCAASGVTISALNAMAMGWFRQAPGKGLEFVAAVSERGNAYYRDSVKGRFTISRDNSKNTLYLQMNSLRAEDTAVYYCAALEDRVDSFHDYWGQGTLVTVSS							no binding
Variant 6 of humanized NbALFA (VHH, CDR-grafted variant, produced in E. coli and purified by IMAC; The tag is not described) VHH: EVQLQASGGGFVQPGGSLRLSCAASGVTISALNAMAMGWFRQAPGKEREFVSAVSERGNAMYRESVQGRFTISRDNSKNTVYLQMNSLRAEDTATYYCAALEDRVDSFHDYWGQGTQVTVSS							no binding
